Laboratory results published in US20250263462A1 (published 2025).
Positions count from the first letter of the chain named. Names may count otherwise. Each block holds one binder with its values, some of them ahead of it.

How the values were obtained:
Test in all cases: cytokine release
[1] = target: T1, KRAS G12V peptide on HLA-A*11:01 (human)
T1 peptide: VVVGAVGVGK

[2] = target: T2, KRAS wild type peptide on HLA-A*11:01 (human)
T2 peptide: VVVGAGGVGK

[3] = target: T3, KRAS G12D peptide on HLA-A*11:01 (human)
T3 peptide: VVVGADGVGK

[4] = target: T4, KRAS G12D peptide on HLA-A*11:01 (human)
T4 peptide: VVVGADGVG

[5] = target: T5, KRAS G12D peptide on HLA-A*11:01 (human)
T5 peptide: VVGADGVGK

[6] = target: T6, KRAS wild type peptide on HLA-A*11:01 (human)
T6 peptide: VVGAGGVGK

[7] = target: T7, KRAS G12V peptide on HLA-A*11:01 (human)
T7 peptide: VVGAVGVGK

B1: TRAV16D/DV11*03 + TRBV4*01 (TCR)
alpha TRAV16D/DV11*03 52*01 CDR3: CAMREDTGANTGKLTF
Vbeta: ETAVFQTPNYHVTQVGNEVSFNCKQTLGHDTMYWYKQDSKKLLKIMFSYNNKQLIVNETVPRRFSPQSSDKAHLNLRIKSVEPEDSAVYLCASSSRDWSAETLYFGSGTRLTVL
binding result [1]: no recognition | binding result [2]: no recognition

B2: TRAV12N-3*01 + TRBV5*01 (TCR)
Valpha: GDSVTQTEGLVTLTEGLPVMLNCTYQTIYSNPFLFWYVQHLNESPRLLLKSFTDNKRTEHQGFHATLHKSSSSFHLQKSSAQLSDSALYYCALRGNAGAKLTFGGGTRLTVRP
beta TRBV5*01 2*01/2-1*01 CDR3: CASSQDSLGRAEQFF
binding result [1]: no recognition | binding result [3]: no recognition | binding result [2]: no recognition

B3: TRAV12N-3*01/BV4*01 murine anti-KRAS G12D TCR (SEQ ID NOs: 11 and 12) (TCR, V domains shown)
Valpha: B2 Valpha
Vbeta: B1 Vbeta
binding result [4]: no recognition | binding result [5]: no recognition | binding result [1]: no recognition | binding result [3]: recognises | binding result [2]: no recognition | binding result [6]: no recognition

B4: TRAV3-3*01/TRBV4*01 murine anti-KRAS G12V TCR (SEQ ID NOs: 133 and 134) (TCR, V domains shown)
Valpha: GEQVEQRPPHLSVREGDSAVITCTYTDPNSYYFFWYKQEPGASLQLLMKVFSSTEINEGQGFTVLLNKKDKRLSLNLTAAHPGDSAAYFCAVSGGTNSAGNKLTFGIGTRVLVRP
Vbeta: ETAVFQTPNYHVTQVGNEVSFNCKQTLGHDTMYWYKQDSKKLLKIMFSYNNKQLIVNETVPRRFSPQSSDKAHLNLRIKSVEPEDSAVYLCASSRDWGPAEQFFGPGTRLTVL
binding result [5]: no recognition | binding result [1]: recognises | binding result [3]: no recognition | binding result [2]: no recognition

B5: TRAV4-4/DV10*01/BV12-2*01 murine anti-KRAS G12D TCR (SEQ ID NOs: 157 and 158) (TCR, V domains shown)
Valpha: GDQVEQSPSALSLHEGTDSALRCNFTTTMRSVQWFRQNSRGSLISLFYLASGTKENGRLKSAFDSKERRYSTLHIRDAQLEDSGTYFCAADSSNTGYQNFYFGKGTSLTVIP
Vbeta: NSGVVQSPRYIIKGKGERSILKCIPISGHLSVAWYQQTQGQELKFFIQHYDKMERDKGNLPSRFSVQQFDDYHSEMNMSALELEDSAVYFCASSLTDPLDSDYTFGSGTRLLVI
binding result [5]: no recognition | binding result [1]: no recognition | binding result [2]: no recognition | binding result [6]: no recognition

B7: TRAV19*01/TRBV13-1*02 murine anti-KRAS G12V TCR (SEQ ID NOs: 145 and 146) (TCR, V domains shown)
Valpha: GQQVKQSSPSLTVQEGGILILNCDYENDMFDYFAWYKKYPDNSPTLLISVRSNVDKREDGRFTVFLNKSGKHFSLHITASQPEDTAVYLCAAGDSGGSNYKLTFGKGTLLTVTP
Vbeta: EAAVTQSPRNKVTVTGGNVTLSCRQTNSHNYMYWYRQDTGHGLRLIHYSYGAGNLQIGDVPDGYKATRTTQEDFFLLLELASPSQTSLYFCASASWGGYAEQFFGPGTRLTVL
binding result [5]: no recognition | binding result [1]: recognises | binding result [3]: no recognition | binding result [2]: no recognition | binding result [7]: no recognition

More lines, now with the values ahead:

binding result [3]: recognises
B6: Substituted TRAV4-4/DV10*01/BV12-2*01 (CDR3alpha G112A) (SEQ ID NOs: 209 and 158) (TCR, V domains shown)
Valpha: B5 Valpha with G96A
Vbeta: B5 Vbeta

binding result [1]: no recognition | binding result [3]: no recognition | binding result [2]: no recognition
B8: TRAV3-3*01 + TRBV13-1*02 (TCR, V domains shown)
Valpha: B4 Valpha
Vbeta: B7 Vbeta

binding result [1]: no recognition | binding result [3]: no recognition | binding result [2]: no recognition
B9: TRAV19*01 + TRBV4*01 (TCR, V domains shown)
Valpha: B7 Valpha
Vbeta: B4 Vbeta

binding result [1]: no recognition | binding result [2]: no recognition
B10: TRAV16D/DV11*03 + TRBV5*01 (TCR)
alpha TRAV16D/DV11*03 52*01 CDR3: CAMREDTGANTGKLTF
beta TRBV5*01 2*01/2-1*01 CDR3: CASSQDSLGRAEQFF
